Key:
[1] = Thermal unfolding by circular dichroism and nano-differential scanning fluorimetry; assay type: physicochemical; conditions: circular dichroism thermal ramping (20-70 °C, 220 nm) and nanoDSF (0.35 mg ml^−1, 1 °C min^−1); 25 mM phosphate pH 7.5, 150 mM NaF; triplicates
Procedure: Thermal unfolding coupled to CD was performed between 20 °C and 70 °C with a measure in triplicate every 5 °C increment. Millidegree values at 220 nm were plotted against their temperature and the melting temperature calculated using a Boltzmann sigmoidal equation.
Melting temperatures were measured by Nano differential scanning fluorimetry using a Prometheus NT.48 (Nanotemper). Tryptophan intrinsic fluorescence emission was recorded at 330 and 350 nm with 30% excitation power during thermal ramping from 20 to 90 °C (1 °C min^−1). 10 μl of proteins in 25 mM phosphate buffer (pH 7.5), 150 mM NaF and at a concentration of 0.35 mg ml^−1 were loaded in nanoDSF grade standard capillaries. Samples were measured in triplicates and the calculated melting temperatures averaged. Melting temperature were calculated by the software PR.ThermControl.

organellar pellet = experiment: Distribution of Pex5p variants between cytosolic fraction and organellar pellet; assay type: cell-based, S. cerevisiae; conditions: postnuclear supernatants of oleate-grown cells; immunoblot; n = 3
Procedure: Spheroplasting of yeast cells, homogenization, preparation of postnuclear supernatants and generation of cytosolic fractions and organellar pellets by centrifugation (25,000 g for 15 min at 4 °C) were performed as described previously ([Erdmann et al. 1989]).
Immunoblot analyses were performed according to standard procedures. Polyclonal rabbit antibodies used were raised against Pex5p ([Albertini et al. 1997]), Pex14p ([Girzalsky et al. 1999]), Pex13p ([Girzalsky et al. 1999]) and Pex17p ([Huhse et al. 1998]). To detect GFP, monoclonal mouse antibodies (Sigma-Aldrich/Merck or Roche Diagnostics, Germany) were used. Immuno-reactive complexes were visualized either using the IRDye 800CW goat anti-mouse IgG or IRDye 680RD goat anti-rabbit secondary antibody (Li-COR Biosciences, Bad Homburg, Germany) followed by detection with an ‘Infrarot Imaging System’ (Li-COR Biosciences) or using horseradish-peroxidase coupled anti-rabbit or anti-mouse antibodies (Sigma-Aldrich/Merck, Germany) and subsequent detection of chemiluminescence signals with a ChemoCam Camera system (INTAS Science instruments GmbH, Göttingen, Germany). Quantification of immunoblot signals (Supplementary Figure 1E; n = 3) was performed using the software Image Studio Lite (LI-COR Biosciences).

[2] = system: docking complex (Pex14p/Pex17p/Pex13p); experiment: Association of Pex5p variants with the peroxisomal docking complex; assay type: binding, S. cerevisiae; conditions: TPA-tagged Pex5p variants, digitonin-solubilized membrane fractions; immunoblot
Procedure: Pex5p was affinity-purified from crude membrane and cytosolic fractions prepared from oleic acid-induced cells expressing TPA-tagged Pex5p as described before with slight modifications ([Agne et al. 2003]; [Schafer et al. 2004]). In brief, cytosolic and membrane fractions were prepared as described above using lysis buffer containing 10% (v/v) glycerol. For the analysis of Pex5p phosphorylation sites, crude membrane fractions were resuspended in glycerol-containing lysis buffer, the protein concentration was adjusted to 5 mg ml^−1, and proteins were solubilized using 1% (v/v) Triton X-100. Unsolubilized material was removed by centrifugation (100,000 g, 1 h, 4 °C). The cleared detergent extracts as well as cytosolic fractions were subjected to affinity purification via IgG Sepharose. Proteins bound to the matrix were eluted by incubation with AcTEV protease (Thermo Fisher Scientific/Invitrogen) followed by addition of Ni-NTA agarose to remove the His-tagged TEV protease. Eluted proteins were collected by centrifugation and precipitated by adding the fivefold volume of ice-cold acetone followed by incubation at −20 °C for at least 1 h. […]
Immunoblot analyses were performed according to standard procedures. […] Quantification of immunoblot signals (Supplementary Figure 1E; n = 3) was performed using the software Image Studio Lite (LI-COR Biosciences).

B1: Pex5p^WT: Pex5p wildtype, PTS1 receptor of S. cerevisiae (protein)
chain: MDVGSCSVGNNPLAQLHKHTQQNKSLQFNQKNNGRLNESPLQGTNKPGISEAFISNVNAISQENMANMQRFINGEPLIDDKRRMEIGPSSGRLPPFSNVHSLQTSANPTQIKGVNDISHWSQEFQGSNSIQNRNADTGNSEKAWQRGSTTASSRFQYPNTMMNNYAYASMNSLSGSRLQSPAFMNQQQSGRSKEGVNEQEQQPWTDQFEKLEKEVSENLDINDEIEKEENVSEVEQNKPETVEKEEGVYGDQYQSDFQEVWDSIHKDAEEVLPSELVNDDLNLGEDYLKYLGGRVNGNIEYAFQSNNEYFNNPNAYKIGCLLMENGAKLSEAALAFEAAVKEKPDHVDAWLRLGLVQTQNEKELNGISALEECLKLDPKNLEAMKTLAISYINEGYDMSAFTMLDKWAETKYPEIWSRIKQQDDKFQKEKGFTHIDMNAHITKQFLQLANNLSTIDPEIQLCLGLLFYTKDDFDKTIDCFESALRVNPNDELMWNRLGASLANSNRSEEAIQAYHRALQLKPSFVRARYNLAVSSMNIGCFKEAAGYLLSVLSMHEVNTNNKKGDVGSLLNTYNDTVIETLKRVFIAMNRDDLLQEVKPGMDLKRFKGEFSF
modifications: left off: His6, N-terminal, state not stated
notes: Pex5p wildtype, PTS1 receptor of S. cerevisiae
melting temperature [1]: approximately 46 °C
distribution between cytosolic fraction and organellar pellet (membrane binding) (organellar pellet): no detectable difference
composition of docking complex and abundance of individual proteins [2]: comparable irrespective of the Pex5p variant expressed

Reference: paper PMC9929924, “Phosphorylation of the receptor protein Pex5p modulates import of proteins into peroxisomes” (Biological Chemistry, 2022)
